{"source": "patent US7846719B2", "about": "“Express system of soluble glutaminyl cyclase” (Academia Sinica, priority 2006, dated 2010)", "proteins": {"B1": {"name": "recombinant human QC (Homo sapiens) (protein)", "chain": "ASAWPEEKNYHQPAILNSSALRQIAEGTSISEMWQNDLQPLLIERYPGSPGSYAARQHIMQRIQRLQADWVLEIDTFLSQTPYGYRSFSNIISTLNPTAKRHLVLACHYDSKYFSHWNNRVFVGATDSAVPCAMMLELARALDKKLLSLKTVSDSKPDLSLQLIFFDGEEAFLHWSPQDSLYGSRHLAAKMASTPHPPGARGTSQLHGMDLLVLLDLIGAPNPTFPNFFPNSARWFERLQAIEHELHELGLLKDHSLEGRYFQNYSYGGVIQDDHIPFLRRGVPVLHLIPSPFPEVWHTMDDNEENLDESTIDNLNKILQVFVLEYLHL", "notes": "corresponding to the coding region of human QC (Ala33-Leu361) was re-amplified and inserted into a pET-43.1a expression vector; Nus fusion (pET-43.1a construct) or thioredoxin fusion (pET-32a construct) (N, cleaved yes); (His)6 (pET-43.1a construct: N- and C-terminal sites; pET-32a construct: 5'-end, upstream of the Factor Xa site); made in house; host or cells: E. coli BL21 (DE3)"}}, "substrate": "NC(=O)CC[C@H](NC(=O)[C@@H](N)CCC(N)=O)C(=O)O", "assay": "Spectrophotometric QC activity assay (glutamate dehydrogenase coupled), human QC expressed in E. coli", "type": "biochemical", "settings": "other: substrate of human QC expressed in Escherichia coli cell, mean ± SD (n = 2), 50 mM Tris-HCl, pH 8.0", "protocol": "For the spectrophotometric method, the 500 μl assay solutions consisted of 15 units glutamate dehydrogenase, 12 mM α-ketoglutarate, 0.6 mM NADH (a reduced form of NAD (nicotinamide adenine dinucleotide)) and varying concentrations of synthetic substrate in 50 mM Tris-HCl, pH 8.0. Reactions were started by the addition of QC (0.04 to 2.5 μg), and the activity was monitored by recording the decrease of NADH absorbance at 340 nm.\nThe Km and kcat values determined for the recombinant protein of the invention were very similar to the human QC expressed in Drosophila S2 cells, as evident in Table 1.", "data": [{"protein": "B1", "values": [{"measurement": "Km", "result": "600 ± 100", "unit": "µM"}, {"measurement": "kcat", "result": "8.6 ± 0.5", "unit": "s⁻¹"}, {"measurement": "kcat/Km", "result": "13700 ± 500", "unit": "M⁻¹ s⁻¹"}]}]}
